Source: patent publication US20120172293A1 (Takeda / Millennium, published 2012)
Non-standard residues stand in square brackets, D forms with d. No end group written: not given here. Phe(4-NH2) = Nc1ccc(C[C@H](N)C(=O)O)cc1; Phe(4-F) = N[C@@H](Cc1ccc(F)cc1)C(=O)O; 1Nal = N[C@@H](Cc1cccc2ccccc12)C(=O)O; 2Nal = N[C@@H](Cc1ccc2ccccc2c1)C(=O)O; 4Amb = NCc1ccc(C(=O)O)cc1; Nva = CCC[C@H](N)C(=O)O; Aib = CC(C)(N)C(=O)O

T1: human Y2 receptor (human, UniProt P49146 1-381)
T1 sequence (looked up): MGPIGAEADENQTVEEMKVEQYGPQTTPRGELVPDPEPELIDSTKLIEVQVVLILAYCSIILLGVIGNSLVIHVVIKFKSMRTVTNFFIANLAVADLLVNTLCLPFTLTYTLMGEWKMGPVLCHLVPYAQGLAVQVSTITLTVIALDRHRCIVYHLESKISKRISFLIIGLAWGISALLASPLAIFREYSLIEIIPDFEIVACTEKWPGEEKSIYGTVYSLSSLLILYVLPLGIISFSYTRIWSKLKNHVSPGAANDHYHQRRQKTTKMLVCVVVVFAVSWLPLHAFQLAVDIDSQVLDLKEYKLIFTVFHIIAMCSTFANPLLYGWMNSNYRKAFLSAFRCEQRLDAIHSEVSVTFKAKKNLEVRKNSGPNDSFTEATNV

B1: 4-Aminomethylbenzoyl-[Ala26, Ile28,31, Nal(1)30]-PYY(25-36) (peptide)
peptide: [4Amb]RAYIN[1Nal]ITRQRY-NH2
modifications: N-terminus assumed
SMILES: CC[C@H](C)[C@H](NC(=O)[C@H](Cc1ccc(O)cc1)NC(=O)[C@H](C)NC(=O)[C@H](CCCNC(=N)N)NC(=O)c1ccc(CN)cc1)C(=O)N[C@@H](CC(N)=O)C(=O)N[C@@H](Cc1cccc2ccccc12)C(=O)N[C@H](C(=O)N[C@H](C(=O)N[C@@H](CCCNC(=N)N)C(=O)N[C@@H](CCC(N)=O)C(=O)N[C@@H](CCCNC(=N)N)C(=O)N[C@@H](Cc1ccc(O)cc1)C(N)=O)[C@@H](C)O)[C@@H](C)CC
notes: also called compound No. 55
B2: 4-Aminomethylbenzoyl-[Ala26, Ile28,31, Nva32]-PYY(25-36) (peptide)
peptide: [4Amb]RAYINLI[Nva]RQRY-NH2
modifications: N-terminus assumed
SMILES: CCC[C@H](NC(=O)[C@@H](NC(=O)[C@H](CC(C)C)NC(=O)[C@H](CC(N)=O)NC(=O)[C@@H](NC(=O)[C@H](Cc1ccc(O)cc1)NC(=O)[C@H](C)NC(=O)[C@H](CCCNC(=N)N)NC(=O)c1ccc(CN)cc1)[C@@H](C)CC)[C@@H](C)CC)C(=O)N[C@@H](CCCNC(=N)N)C(=O)N[C@@H](CCC(N)=O)C(=O)N[C@@H](CCCNC(=N)N)C(=O)N[C@@H](Cc1ccc(O)cc1)C(N)=O
notes: also called compound No. 61
B3: 4-Aminomethylbenzoyl-[Ala26, Aib27, Ile28,31]-PYY(25-36) (peptide)
peptide: [4Amb]RA[Aib]INLITRQRY-NH2
modifications: N-terminus assumed
SMILES: CC[C@H](C)[C@H](NC(=O)[C@H](CC(C)C)NC(=O)[C@H](CC(N)=O)NC(=O)[C@@H](NC(=O)C(C)(C)NC(=O)[C@H](C)NC(=O)[C@H](CCCNC(=N)N)NC(=O)c1ccc(CN)cc1)[C@@H](C)CC)C(=O)N[C@H](C(=O)N[C@@H](CCCNC(=N)N)C(=O)N[C@@H](CCC(N)=O)C(=O)N[C@@H](CCCNC(=N)N)C(=O)N[C@@H](Cc1ccc(O)cc1)C(N)=O)[C@@H](C)O
notes: also called compound No. 53
B4: 4-Aminomethylbenzoyl-[Ala26, Ile28,31, Phe(4F)30]-PYY(25-36) (peptide)
peptide: [4Amb]RAYIN[Phe(4-F)]ITRQRY-NH2
modifications: N-terminus assumed
SMILES: CC[C@H](C)[C@H](NC(=O)[C@H](Cc1ccc(O)cc1)NC(=O)[C@H](C)NC(=O)[C@H](CCCNC(=N)N)NC(=O)c1ccc(CN)cc1)C(=O)N[C@@H](CC(N)=O)C(=O)N[C@@H](Cc1ccc(F)cc1)C(=O)N[C@H](C(=O)N[C@H](C(=O)N[C@@H](CCCNC(=N)N)C(=O)N[C@@H](CCC(N)=O)C(=O)N[C@@H](CCCNC(=N)N)C(=O)N[C@@H](Cc1ccc(O)cc1)C(N)=O)[C@@H](C)O)[C@@H](C)CC
notes: also called compound No. 58
B5: 4-Aminomethylbenzoyl-[Ala26, Phe(4NH2)27, Ile28,31]-PYY(25-36) (peptide)
peptide: [4Amb]RA[Phe(4-NH2)]INLITRQRY-NH2
modifications: N-terminus assumed
SMILES: CC[C@H](C)[C@H](NC(=O)[C@H](Cc1ccc(N)cc1)NC(=O)[C@H](C)NC(=O)[C@H](CCCNC(=N)N)NC(=O)c1ccc(CN)cc1)C(=O)N[C@@H](CC(N)=O)C(=O)N[C@@H](CC(C)C)C(=O)N[C@H](C(=O)N[C@H](C(=O)N[C@@H](CCCNC(=N)N)C(=O)N[C@@H](CCC(N)=O)C(=O)N[C@@H](CCCNC(=N)N)C(=O)N[C@@H](Cc1ccc(O)cc1)C(N)=O)[C@@H](C)O)[C@@H](C)CC
notes: also called compound No. 52
B6: 4-Aminomethylbenzoyl-[Ala26, Ile28,31, Nal(2)30]-PYY(25-36) (peptide)
peptide: [4Amb]RAYIN[2Nal]ITRQRY-NH2
modifications: N-terminus assumed
SMILES: CC[C@H](C)[C@H](NC(=O)[C@H](Cc1ccc(O)cc1)NC(=O)[C@H](C)NC(=O)[C@H](CCCNC(=N)N)NC(=O)c1ccc(CN)cc1)C(=O)N[C@@H](CC(N)=O)C(=O)N[C@@H](Cc1ccc2ccccc2c1)C(=O)N[C@H](C(=O)N[C@H](C(=O)N[C@@H](CCCNC(=N)N)C(=O)N[C@@H](CCC(N)=O)C(=O)N[C@@H](CCCNC(=N)N)C(=O)N[C@@H](Cc1ccc(O)cc1)C(N)=O)[C@@H](C)O)[C@@H](C)CC
notes: also called compound No. 56

Each binder was assayed against T1, human Y2 receptor (assay: cell-based or functional assay).

| GBA EC50 Ratio (vs PYY(3-36)), [35S]GTPγS [ratio] | Binder |
| --- | --- |
| 3 | B1 |
| 17 | B2 |
| 7.5 | B3 |
| 2.9 | B4 |
| 5.7 | B5 |
| 2.4 | B6 |

What follows are binders tested against T1, human Y2 receptor (assay: RBA: [125I]-PYY displacement, hY2R/CHO membranes).
In short: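 Bound radioligand was collected by filtration on PEI-treated GF/C filters, washed with Tris/MgCl₂/NaCl/CHAPS buffer pH 7.4, and counted by scintillation; IC₅₀ values were calculated.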

| IC50 Ratio (vs PYY(3-36)) [ratio] | Binder |
| --- | --- |
| 3.4 | B1 |
| 29 | B2 |
| 18 | B3 |
| 4.1 | B4 |
| 11 | B5 |
| 4.1 | B6 |
